Data from PMC8274395 (Biochemistry, 2021).

Molecular target: the molecule itself
Experiment: crystal structure

B1: Cj1441, UDP-glucose 6-dehydrogenase from Campylobacter jejuni NCTC 11168 (enzyme)
chain: MKIVIVGIGYVGLANAILFSKNNENEVVLLDIDENKIQSINNHKSPIKDKLIEKFFVQNISKLHATSNIKEAYFNADFAVIATPTDYDEQLNFFDTRSIENVLKDIKNINSKINVIIKSTVPIGYTKTIKQKFNMSNIVFSPEFLREGSALYDSLYPSRIIIGDKSVLGKTIGDLFLKNIEKKNVDIFYMDSDEAESVKLFSNTYLAMRVGFFNEVDSYARKHNLNSADIIKGISADDRIGKYYNNPSFGYGGYCLPKDTKQLLANFYNIPNSLIKAIVETNEIRKKFITQLILEKKPNILGIYRLIMKQNSDNFRNSVIIDIIKYLQEYNSNIELIIYEPLVKEKKFLNIKVENDFNVFGAKVDLIIANRFDDKLKEIKDKVFSADVFYTDI
binding result: binds
